Blank lines part the entries; values can stand above or below the molecule they belong to. The star is where a group is joined. CSCF3 = thiotrifluoroacetyl on lysine, FC(F)(F)C(=S)*; fluorescein = fluorescein label at the N-terminus
Tests used:
Hst2 (yeast) = Hst2 (yeast) (UniProt P53686); experiment: ITC
SIRT3 (human) [1] = experiment: fluorescence polarisation
SIRT3 (human) [2] = experiment: ITC

Sequence of UniProt P53686 (P53686 whole entry): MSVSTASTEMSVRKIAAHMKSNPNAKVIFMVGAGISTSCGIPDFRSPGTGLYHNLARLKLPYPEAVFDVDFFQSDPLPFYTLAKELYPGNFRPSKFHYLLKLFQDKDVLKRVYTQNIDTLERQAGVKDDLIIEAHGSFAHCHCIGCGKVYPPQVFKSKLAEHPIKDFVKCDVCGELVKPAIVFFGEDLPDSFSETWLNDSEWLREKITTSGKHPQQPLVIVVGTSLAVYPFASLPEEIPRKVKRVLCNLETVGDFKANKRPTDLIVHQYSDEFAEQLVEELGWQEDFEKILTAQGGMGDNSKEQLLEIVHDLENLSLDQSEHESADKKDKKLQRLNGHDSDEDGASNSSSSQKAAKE

Kd (Hst2 (yeast)): 950 nM
Molecule: Histone H3 peptide with pentafluoropropionyl-lysine at Lys-14

Kd (SIRT3 (human) [1]): 1700 nM
Kd (SIRT3 (human) [2]): 900 nM
B1: Fluorescein-labeled thiotrifluoroacetyl-lysine peptide based on acetyl-CoA synthetase 2 (Fluorescein-LPKTRSGK(CSCF3)VMRR-OH) (peptide)
peptide: fluorescein-LPKTRSGK(CSCF3)VMRR-OH

Source: publication PMC3042044
